# Data from US20230220589A1.
# B1: engineered M44-L binder (SEQ ID NO: 31) (designed binder, not shown: small tags and cut ends; large carriers)
# chain: QDSTQNLIPAPPLISVPLQPGFWTERFQGRWFLVGFAGNAVQKERQSRLTMQSLILELQEDNSYNITAINVRGQGCRYIISTLVPSSRPGQFTLGNIHSYPQIQSLDVQVADTDYDQFAMVFLQGTSENKQYFEVALAGRTKGLSDELKERFVSFAKSLGLKDNNIVFSVPTDQCIDN
# B2: engineered M44-L binder (SEQ ID NO: 21) (designed binder, not shown: small tags and cut ends; large carriers)
# chain: QVSVQPNFQQDKFLGRWFYAGHASNSSWYREKVAALSMAKLVVAPATDGGLNATETFLRKNQCETITSLLQPAGSLGSYSSRSPHGGSTWSTSVVETDYDQYALLYLQGSKGPGEDFRGAILASRTQTPRAELKEKFTAFSKAQGFTEDTIVFLPQTDKCMTEQ
# Tests used:
# [1] = biological target: M44-modified W NTAA target peptides; assay: encoding assay; P2 V;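 further: fraction of recording tags encoded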
# [2] = biological target: M44-modified T NTAA target peptides; assay: encoding assay; P2 H
# [3] = biological target: M44-modified W NTAA target peptides; assay: encoding assay; P2 H;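 further: fraction of recording tags encoded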
# [4] = biological target: M44-modified M NTAA target peptides; assay: encoding assay; P2 H
# [5] = biological target: M44-modified L NTAA target peptides (M44-L-P2-peptide); assay: encoding assay; P2 H;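 further: fraction of recording tags encoded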
# [6] = biological target: M44-modified H NTAA target peptides; assay: encoding assay; P2 H
# [7] = biological target: M44-modified P NTAA target peptides; assay: encoding assay; P2 H;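 further: fraction of recording tags encoded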
# [8] = biological target: M44-modified F NTAA target peptides (M44-F-P2-peptide); assay: encoding assay; P2 H;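 further: fraction of recording tags encoded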
# [9] = biological target: M44-modified A NTAA target peptides (M44-A-P2-peptide); assay: encoding assay; P2 H
# [10] = biological target: M44-modified V NTAA target peptides; assay: encoding assay; P2 H;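 further: fraction of recording tags encoded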
# [11] = biological target: M44-modified D NTAA target peptides; assay: encoding assay; P2 H;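 further: fraction of recording tags encoded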
# [12] = biological target: M44-modified I NTAA target peptides (M44-I-P2-peptide); assay: encoding assay; P2 H
# [13] = biological target: M44-modified Q NTAA target peptides; assay: encoding assay; P2 H
# [14] = biological target: M44-modified Y NTAA target peptides (M44-Y-P2-peptide); assay: encoding assay; P2 H;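 further: fraction of recording tags encoded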
# [15] = biological target: M44-modified N NTAA target peptides; assay: encoding assay; P2 H
# [16] = biological target: M44-modified W NTAA target peptides; assay: encoding assay; P2 A;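 further: fraction of recording tags encoded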
# [17] = biological target: M44-modified M NTAA target peptides; assay: encoding assay; P2 A
# [18] = biological target: M44-modified H NTAA target peptides; assay: encoding assay; P2 A
# [19] = biological target: M44-modified G NTAA target peptides (M44-G-P2-peptide); assay: encoding assay; P2 A;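 further: fraction of recording tags encoded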
# [20] = biological target: M44-modified A NTAA target peptides (M44-A-P2-peptide); assay: encoding assay; P2 A
# [21] = biological target: M44-modified V NTAA target peptides; assay: encoding assay; P2 A;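 further: fraction of recording tags encoded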
# [22] = biological target: M44-modified I NTAA target peptides (M44-I-P2-peptide); assay: encoding assay; P2 A
# [23] = biological target: M44-modified Q NTAA target peptides; assay: encoding assay; P2 A
# [24] = biological target: M44-modified Y NTAA target peptides (M44-Y-P2-peptide); assay: encoding assay; P2 A;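 further: fraction of recording tags encoded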
# [25] = biological target: M44-modified N NTAA target peptides; assay: encoding assay; P2 A
# [26] = biological target: M44-modified W NTAA target peptides; assay: encoding assay; P2 D;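 further: fraction of recording tags encoded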
# [27] = biological target: M44-modified M NTAA target peptides; assay: encoding assay; P2 D
# [28] = biological target: M44-modified L NTAA target peptides (M44-L-P2-peptide); assay: encoding assay; P2 D;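 further: fraction of recording tags encoded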
# [29] = biological target: M44-modified G NTAA target peptides (M44-G-P2-peptide); assay: encoding assay; P2 D;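 further: fraction of recording tags encoded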
# [30] = biological target: M44-modified F NTAA target peptides (M44-F-P2-peptide); assay: encoding assay; P2 D;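 further: fraction of recording tags encoded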
# [31] = biological target: M44-modified A NTAA target peptides (M44-A-P2-peptide); assay: encoding assay; P2 D
# [32] = biological target: M44-modified I NTAA target peptides (M44-I-P2-peptide); assay: encoding assay; P2 D
# [33] = biological target: M44-modified Q NTAA target peptides; assay: encoding assay; P2 D
# [34] = biological target: M44-modified Y NTAA target peptides (M44-Y-P2-peptide); assay: encoding assay; P2 D;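 further: fraction of recording tags encoded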
# [35] = biological target: M44-modified N NTAA target peptides; assay: encoding assay; P2 D
# [36] = biological target: M44-modified T NTAA target peptides; assay: encoding assay; P2 E
# [37] = biological target: M44-modified W NTAA target peptides; assay: encoding assay; P2 E;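 further: fraction of recording tags encoded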
# [38] = biological target: M44-modified M NTAA target peptides; assay: encoding assay; P2 E
# [39] = biological target: M44-modified L NTAA target peptides (M44-L-P2-peptide); assay: encoding assay; P2 E;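 further: fraction of recording tags encoded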
# [40] = biological target: M44-modified H NTAA target peptides; assay: encoding assay; P2 E
# [41] = biological target: M44-modified P NTAA target peptides; assay: encoding assay; P2 E;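 further: fraction of recording tags encoded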
# [42] = biological target: M44-modified F NTAA target peptides (M44-F-P2-peptide); assay: encoding assay; P2 E;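 further: fraction of recording tags encoded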
# [43] = biological target: M44-modified A NTAA target peptides (M44-A-P2-peptide); assay: encoding assay; P2 E
# [44] = biological target: M44-modified V NTAA target peptides; assay: encoding assay; P2 E;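 further: fraction of recording tags encoded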
# [45] = biological target: M44-modified S NTAA target peptides; assay: encoding assay; P2 E
# [46] = biological target: M44-modified D NTAA target peptides; assay: encoding assay; P2 E;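 further: fraction of recording tags encoded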
# [47] = biological target: M44-modified E NTAA target peptides; assay: encoding assay; P2 E;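 further: fraction of recording tags encoded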
# [48] = biological target: M44-modified I NTAA target peptides (M44-I-P2-peptide); assay: encoding assay; P2 E
# [49] = biological target: M44-modified Q NTAA target peptides; assay: encoding assay; P2 E
# [50] = biological target: M44-modified Y NTAA target peptides (M44-Y-P2-peptide); assay: encoding assay; P2 E;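 further: fraction of recording tags encoded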
# [51] = biological target: M44-modified N NTAA target peptides; assay: encoding assay; P2 E
binder,measurement,setting,value
B1,encoding yield,[1],0.1
same,encoding yield,[2],0.02
same,encoding yield,[3],0.03
same,encoding yield,[4],0.03
same,encoding yield,[5],0.02
same,encoding yield,[6],0.02
same,encoding yield,[7],0.03
same,encoding yield,[8],0.01
same,encoding yield,[9],0.02
same,encoding yield,[10],0.02
same,encoding yield,[11],0.02
same,encoding yield,[12],0.02
same,encoding yield,[13],0.03
same,encoding yield,[14],0.05
same,encoding yield,[15],0.03
same,encoding yield,[16],0.08
same,encoding yield,[17],0.05
same,encoding yield,[18],0.01
same,encoding yield,[19],0.03
same,encoding yield,[20],0.02
same,encoding yield,[21],0.02
same,encoding yield,[22],0.07
same,encoding yield,[23],0.02
same,encoding yield,[24],0.04
same,encoding yield,[25],0.02
same,encoding yield,[26],0.02
same,encoding yield,[27],0.02
same,encoding yield,[28],0.04
same,encoding yield,[29],0.02
same,encoding yield,[30],0.03
same,encoding yield,[31],0.03
same,encoding yield,[32],0.01
same,encoding yield,[33],0.02
same,encoding yield,[34],0.03
same,encoding yield,[35],0.02
same,encoding yield,[36],0.02
same,encoding yield,[37],0.03
same,encoding yield,[38],0.01
same,encoding yield,[39],0.03
same,encoding yield,[40],0.02
same,encoding yield,[41],0.03
same,encoding yield,[42],0.01
same,encoding yield,[43],0.03
same,encoding yield,[44],0.02
same,encoding yield,[45],0.03
same,encoding yield,[46],0.02
same,encoding yield,[47],0.02
same,encoding yield,[48],0.01
same,encoding yield,[49],0.02
same,encoding yield,[50],0.05
same,encoding yield,[51],0.01
B2,encoding yield,[1],0.02
same,encoding yield,[2],0.01
same,encoding yield,[3],0.01
same,encoding yield,[4],0.01
same,encoding yield,[5],0
same,encoding yield,[6],0.01
same,encoding yield,[7],0.01
same,encoding yield,[8],0.01
same,encoding yield,[9],0.01
same,encoding yield,[10],0.01
same,encoding yield,[11],0.01
same,encoding yield,[12],0.01
same,encoding yield,[13],0.01
same,encoding yield,[14],0.02
same,encoding yield,[15],0.01
same,encoding yield,[16],0.01
same,encoding yield,[17],0.06
same,encoding yield,[18],0.01
same,encoding yield,[19],0.01
same,encoding yield,[20],0.01
same,encoding yield,[21],0.01
same,encoding yield,[22],0.29
same,encoding yield,[23],0.01
same,encoding yield,[24],0.01
same,encoding yield,[25],0.01
same,encoding yield,[26],0.01
same,encoding yield,[27],0.01
same,encoding yield,[28],0.01
same,encoding yield,[29],0.01
same,encoding yield,[30],0.01
same,encoding yield,[31],0.01
same,encoding yield,[32],0
same,encoding yield,[33],0.01
same,encoding yield,[34],0.01
same,encoding yield,[35],0.01
same,encoding yield,[36],0.01
same,encoding yield,[37],0.01
same,encoding yield,[38],0
same,encoding yield,[39],0.01
same,encoding yield,[40],0.01
same,encoding yield,[41],0.01
same,encoding yield,[42],0
same,encoding yield,[43],0.01
same,encoding yield,[44],0.01
same,encoding yield,[45],0.01
same,encoding yield,[46],0.01
same,encoding yield,[47],0.01
same,encoding yield,[48],0
same,encoding yield,[49],0.01
same,encoding yield,[50],0.02
same,encoding yield,[51],0.01
